“Also recorded” adds a separate entry of the source.
Columns and labels:
alpha1-210 fragment = alpha1-210 fragment (Homo sapiens, UniProt P02708); conditions: read-out: concentration of unlabeled toxin giving 50% inhibition of 125I-alpha-BTX binding
[1] = system: anti-AChR antibodies from MG sera; assay: Immunoadsorption of anti-AChR antibodies from MG sera by immobilized epsilon1-219, RIA with human AChR from TE671-epsilon cells; type: binding
Experimental: A subset of […] sera was also tested with gamma1-218 immobilized on CNBr-Sepharose (gray bars) and a subset of 22 sera was screened against epsilon1-219 immobilized on CNBr-Sepharose (blank bars) as described in the Example 3. Sera which have not been tested for immunoadsorption with epsilon1-219 are indicated in the X axis with open circles and sera which have not been tested on both gamma1-218 and epsilon1-219 are indicated with filled circles.
Immunoadsorption of MG autoantibodies by immobilized gamma1-218 or epsilon1-219 domains. 0.1 mg[…] of purified gamma1-218 or epsilon 1-219 mixed with 1.4 mg BSA was covalently immobilized on 1 gr of CNBr-Sepharose according to manufacturer's protocol. In parallel, an identical column was prepared with 1.5 mg BSA, to serve as control. Variable amounts of MG patient sera containing 20 fmoles of anti-AChR antibodies were incubated with 1 ug immobilized gamma1-218 mixed with BSA or the same amount of BSA at 4° C. for 2-3 h followed by centrifugation Samples of the supernatants, each containing an amount corresponding to 6 fmoles of preadsorbed anti-AChR antibody, were subsequently tested in a typical RIA MG diagnostic test as above. Sera which had been incubated with gamma1-218 were screened with the human AChR from TE671 cells (which contains alpha, beta, gamma and delta subunits) whereas sera immunoadsorbed with epsilon1-219 were screened with human AChR from TE671-epsilon cells(which contains alpha, beta, gamma and epsilon subunits) (Beeson et al., Neurology, 47,1552-1555, 1996). The percentage of immunoadsorption was estimated as above. Several MG sera from the group of the sera tested with immobilized alpha1-210 were assayed for binding to human AChR after incubation with immobilized gamma1-218 (43 sera) or epsilon1-219 (22 sera) or BSA only. Incubation with gamma1-218 led to a 29-56% reduction for 16% of the tested sera (7 sera out of 43), whereas it caused a 15%-30% reduction in another 28% of the tested sera (12 sera) (FIG. 6, gray bars). Other tested MG sera reached up to 68% immunoadsorption by gamma1-218 (not shown). […]

[2] = system: anti-AChR antibodies from MG sera; assay: Immunoadsorption of anti-AChR antibodies from MG sera by CNBr-Sepharose-immobilized subunit domains, RIA with human AChR from TE671 cells; type: binding; conditions: for immunoadsorption of anti-AChR antibodies (in words): immobilized on Sepharose-CNBr
Experimental: FIG. 6 illustrates the immunoadsorption of anti-AChR antibodies from MG sera using immobilized alpha1-210 (black bars), gamma1-218 (grey bars) and epsilon1-219 (blank bars). Each subunit has been expressed in the yeast Pichia pastoris and the purified proteins have been covalently immobilized on CNBr-Sepharose beads. 64 MG positive sera were assayed for binding to human AChR after incubation with alpha1-210 immobilized on CNBr-Sepharose (together with BSA) or with just BSA immobilized on the same insoluble matrix. 2.5 ul of each MG patient serum were incubated with 0.2 ug immobilized alpha1-210 mixed with BSA or the same amount of BSA at […] for 2-3h (in a total volume of 0.16 ml) followed by centrifugation. Samples of the supernatants, each containing an amount corresponding to 0.9 ul of the treated MG sera were subsequently used in a typical RIA MG diagnostic test (Lindstrom et al., Meth. Enzymol. 74, 432460, 1981) with human AChR from TE671 cells. The percentage of immunoadsorption was estimated as described in the Example 3. Samples were processed in duplicates. Results shown (black bars) are an average of two experiments. Sera are sorted in decreasing percentage of immunoadsorption to immobilized alpha1-210.
FIG. 7 illustrates the immunoadsorption of anti-AChR antibodies from MG sera against immobilized alpha1-210 (black bars), gamma1-218 (gray bars) and a mix of both immobilized alpha1-210 and gamma1-218 (hatched bars). 9 MG sera were assayed for binding to human AChR after incubation of 20 fmoles anti-AChR MG antibodies with alpha1-210 (1 ug), or gamma1-218 (1 ug) or alpha1-210/gamma1-218 mix (containing 1 ug of each subunit) immobilized on CNBr-Sepharose. Incubation with just BSA immobilized to the same insoluble matrix served as a control to calculate the percent immunoadsorption against each of the subunits and the mix of both. After incubation with the Sepharose-immobilized proteins, sera were screened in a typical RIA experiment using TE671 AChR. The percentage of immunoadsorption was estimated as described in the Example 3. Samples were processed in duplicates. Results shown are an average of two experiments.
Immunoadsorption of MG autoantibodies by immobilized alpha1-210. 0.1 mg alpha1-210 mixed with 1.4 mg BSA was covalently bound to 0.5 gr CNBr-Sepharose according to manufacturer's protocol (Amersham). BSA was simply added to increase the protein/Sepharose ratio because the ratio of recombinant protein to Sepharose beads used would otherwise be too small; BSA is not necessary for larger scale experiments. In parallel, 1.5 mg BSA was bound to the same amount of CNBr-Sepharose under the same conditions as control. 2.5 ul MG patient sera were incubated with 0.2 ug immobilized alpha1-210 mixed with BSA, or the same amount of immobilized BSA alone, at 4° C. for 2-3 h (in a total volume of 0.16 ml) followed by centrifugation for bead precipitation. Samples of the supernatants, each containing an amount corresponding to 0.9 ul of these treated MG sera were subsequently used in a typical RIA MG diagnostic test (Lindstrom et al., Meth. Enzymol. 74, 432460, 1981) with human AChR from TE671 cells. The percentage of immunoadsorption was estimated as the ratio between the reduction in immunoprecipitated radiolabeled human AChR after incubation with alpha1-210 and the immunoprecipitated radiolabeled human AChR without incubation with alpha1-210 (incubation with plain immobilized BSA). 64 MG positive sera were assayed for binding to human AChR after incubation with immobilized alpha1-210 or BSA. […] We also tested immunoadsorption of the same set of MG sera by incubating 0.2 ug immobilized alpha1-210 with a fixed amount of anti-AChR antibodies (20 fmoles in variable volumes of MG sera depending on their titer) rather than a fixed serum volume.
Immunoadsorption of MG autoantibodies by immobilized gamma1-218 or epsilon1-219 domains. […]

[3] = system: anti-AChR antibodies from MG sera; assay: as above; type: binding; conditions: expressed in E. coli, refolded, similarly immobilized, same MG sera

## alpha-bungarotoxin [alpha-BTX]
alpha1-210 fragment
  IC50: 5 nM

B1: epsilon1-219 (protein)
chain: DYKDDDDKKNEELRLYHHLFNNYDPGSRPVREPEDTVTISLKVTLTNLISLNEKEETLTTSVWIGIDWQDYRLNYSKDDFGGIETLRVPSELVWLPEIVLENNIDGQFGVAYDANVLVYEGGSVTWLPPAIYRSVCAVEVTYFPFDWQNCSLIFRSQTYNAEEVEFTFAVDNDGKTINKIDIDTEAYTENGEWAIDFCPGVIRRHHGGATDGPGETDVIYSLIIRRK
modifications: glycosylated
[1]; 27% of screened sera (6/22)
  reduction of anti-AChR antibodies, best-adsorbed sera: 30-54%
[1]; another 45% of the sera (10/22)
  reduction of anti-AChR antibodies, intermediate sera: 15%-30%
[1]; immobilized on Sepharose-CNBr
  immunoadsorption of anti-AChR antibodies (in words): lower but very significant percentages; also recorded: considerable amounts

B2: beta1-222: extracellular domain of human muscle AChR beta subunit, Pichia pastoris, FLAG and six-histidine tag (protein)
chain: DYKDDDDKMTPGALLMLLGALGAPLAPGVRGSEAEGRLREKLFSGYDSSVRPAREVGDRVRVSVGLILAQLISLNEKDEEMSTKVYLDLEWTDYRLSWDPAEHDGIDSLRITAESVWLPDVVLLNNNDGNFDVALDISVVVSSDGSVRWQPPGIYRSSCSIQVTYFPFDWQNCTMVFSSYSYDSSEVSLQTGLGPDGQGHQEIHIHEGTFIENGQWEIIHKPSRLIQPPG
modifications: glycosylated
[2]
  immunoadsorption of anti-AChR antibodies (in words): lower but very significant percentages

B3: alpha1-208: extracellular alpha domain of human AChR expressed in E. coli and refolded according to Tsouloufis et al. (protein)
chain: SEHETRLVAKLFKDYSSVVRPVEDHRQVVEVTVGLQLIQLINVDEVNQIVTTNVRLKQQWVDYNLKWNPDDYGGVKKIHIPSEKIWRPDLVLYNNADGDFAIVKFTKVLLQYTGHITWTPPAIFKSYCEIIVTHFPFDEQNCSMKLGTWTYDGSVVAINPESDQPDLSNFMESGEWVIKESRGWKHSV
[3]
  immunoadsorbing efficiency compared with yeast-expressed alpha domain: significant but much lower
[3]; listed as alpha-subunit fragment expressed in E. coli
  immunoadsorbing efficiency compared with yeast-expressed alpha domain: much lower level

B4: gamma1-218: extracellular domain of human muscle AChR gamma subunit, Pichia pastoris, FLAG and six-histidine tag (protein)
chain: DYKDDDDKRNQEERLLADLMQNYDPNLRPAERDSDVVNVSLKLTLTNLISLNEREEALTTNVWIEMQWCDYRLRWDPRDYEGLWVLRVPSTMVWRPDIVLENNVDGVFEVALYCNVLVSPDGCIYWLPPAIFRSACSISVTYFPFDWQNCSLIFQSQTYSTNEIDLQLSQEDGQTIEWIFIDPEAFTENGEWAIQHRPAKMLLDPAAPAQEAGHQKVVFYLLIQRK
modifications: glycosylated
[2]; 16% of tested sera (7 of 43), 1 ug immobilized protein, 20 fmoles antibody
  reduction of anti-AChR antibodies, best-adsorbed sera: 29-56%
[2]; another 28% of tested sera (12 sera)
  reduction of anti-AChR antibodies, intermediate sera: 15%-30%
[2]
  immunoadsorption of anti-AChR antibodies (in words): lower but very significant percentages; also recorded: large fractions; also recorded: considerable amounts
[2]; other tested MG sera (not shown)
  maximal immunoadsorption in other tested MG sera: up to 68%
[2]; serum no. 3, 1 ug of each immobilized subunit, 20 fmoles antibody
  immunoadsorption of serum no. 3: 22%

— US20050203281A1, “Production of recombinant fragments of muscle acetylcholine receptor and their use for ex vivo immunoadsorption of anti-ch receptor antibodies from myasthenic patients” (priority 2002, published 2005)
